Like-named read-outs stand apart in the source and are kept apart here.
How the values were obtained:
Test in all cases: cell-based or functional assay
[1] = molecular target: T1, human complement Component 5 (C5) (human, UniProt P01031 19-1676, limits assumed)
[2] = molecular target: T1, human complement Component 5 (C5); remark: listed apart in the source
[3] = molecular target: T1, human complement Component 5 (C5); remark: listed apart in the source
[4] = molecular target: T1, human complement Component 5 (C5); remark: listed apart in the source
[5] = molecular target: T1, human complement Component 5 (C5); remark: listed apart in the source

T1 sequence (P01031 19-1676 limits assumed): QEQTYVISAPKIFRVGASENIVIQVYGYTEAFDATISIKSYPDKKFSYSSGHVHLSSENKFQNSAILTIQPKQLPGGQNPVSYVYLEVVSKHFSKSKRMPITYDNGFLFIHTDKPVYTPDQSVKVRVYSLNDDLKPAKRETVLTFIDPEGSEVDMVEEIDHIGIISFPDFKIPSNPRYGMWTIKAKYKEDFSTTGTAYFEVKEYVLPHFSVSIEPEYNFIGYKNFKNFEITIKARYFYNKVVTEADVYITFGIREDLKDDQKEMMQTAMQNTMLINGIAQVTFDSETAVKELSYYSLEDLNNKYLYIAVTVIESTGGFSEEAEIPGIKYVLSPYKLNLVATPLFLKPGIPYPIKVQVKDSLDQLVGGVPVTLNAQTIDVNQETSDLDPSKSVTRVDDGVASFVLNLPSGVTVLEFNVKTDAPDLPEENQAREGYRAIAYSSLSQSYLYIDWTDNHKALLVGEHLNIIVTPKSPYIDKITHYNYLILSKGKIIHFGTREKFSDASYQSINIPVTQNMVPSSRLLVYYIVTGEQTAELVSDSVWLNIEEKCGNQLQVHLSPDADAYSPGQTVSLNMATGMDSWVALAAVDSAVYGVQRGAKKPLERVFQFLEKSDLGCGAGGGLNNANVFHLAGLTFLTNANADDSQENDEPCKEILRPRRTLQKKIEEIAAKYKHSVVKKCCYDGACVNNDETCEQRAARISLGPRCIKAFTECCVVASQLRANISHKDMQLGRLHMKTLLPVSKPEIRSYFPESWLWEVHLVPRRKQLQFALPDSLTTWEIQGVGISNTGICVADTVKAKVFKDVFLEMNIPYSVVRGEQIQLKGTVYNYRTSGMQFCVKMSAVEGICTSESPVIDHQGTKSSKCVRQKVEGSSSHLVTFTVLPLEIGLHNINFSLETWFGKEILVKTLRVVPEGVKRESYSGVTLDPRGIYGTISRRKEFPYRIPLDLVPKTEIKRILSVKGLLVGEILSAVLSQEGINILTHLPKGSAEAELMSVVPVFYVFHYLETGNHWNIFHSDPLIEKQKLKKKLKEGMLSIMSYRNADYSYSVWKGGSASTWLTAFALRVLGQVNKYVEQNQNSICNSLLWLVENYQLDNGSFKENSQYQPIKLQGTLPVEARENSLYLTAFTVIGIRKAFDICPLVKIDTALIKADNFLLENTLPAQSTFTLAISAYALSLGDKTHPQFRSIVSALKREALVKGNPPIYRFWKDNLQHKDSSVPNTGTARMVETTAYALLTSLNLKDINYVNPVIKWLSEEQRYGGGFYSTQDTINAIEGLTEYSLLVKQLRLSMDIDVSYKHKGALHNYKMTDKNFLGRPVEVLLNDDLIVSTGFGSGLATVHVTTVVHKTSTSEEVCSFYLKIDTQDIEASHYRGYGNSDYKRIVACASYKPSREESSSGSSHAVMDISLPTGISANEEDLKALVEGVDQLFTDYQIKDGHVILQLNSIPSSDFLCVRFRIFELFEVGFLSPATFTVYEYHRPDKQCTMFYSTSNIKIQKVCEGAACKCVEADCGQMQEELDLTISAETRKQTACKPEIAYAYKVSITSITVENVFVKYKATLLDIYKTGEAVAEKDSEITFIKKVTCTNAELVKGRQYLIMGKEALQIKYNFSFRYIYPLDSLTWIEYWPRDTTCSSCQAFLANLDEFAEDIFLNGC

B1: H2L1-IgG (antibody, V domains shown)
VH: EVQLVQSGAEVKKPGASVKVSCKASGYTFTDEYMNWVRQAPGKSLEWVGYINPNNGGADYNQKFQGRVTITVDQSASTAYMELSSLRSEDTAVYFCARLGYSNPYFDFWGQGTLVTVSS
VL: DIVLTQSPDSLAVSLGERATINCKASQDVNTAVAWYQQKPDQSPKLLIYWASTRHTGVPARFTGSGSGTDYTLTISSLQAEDVAVYFCQQHHVSPWTFGGGTKVEIK
With B1 the “IC50 (read off the curve), % Inhibition” value [1] was about 3 µg/mL.

B2: H5L3-IgG (antibody, V domains shown)
VH: QVQLKQSGAEVKKPGASVKVSCKASGYTFTDEYMNWVRQAPGKSLEWMGYINPNNGGADYNQKFQGRVTMTVDQSISTAYMELSRLRSDDTAVYFCARLGYSNPYFDFWGQGTLVTVSS
VL: DIVLTQSPSFLSASVGDRVTITCQASQDVNTAVAWYLQKPGKSPKLLIYWASTRHTGVPARFTGSGSGTDYTLTISSLQPEDFAVYFCQQHHVSPWTFGGGTKVEIK
In the case of B2, the “IC50 (read off the curve), % Inhibition” value [1] is reported as about 3 µg/mL.

B3: H5L1-IgG (antibody, V domains shown)
VH: QVQLKQSGAEVKKPGASVKVSCKASGYTFTDEYMNWVRQAPGKSLEWMGYINPNNGGADYNQKFQGRVTMTVDQSISTAYMELSRLRSDDTAVYFCARLGYSNPYFDFWGQGTLVTVSS
VL: DIVLTQSPDSLAVSLGERATINCKASQDVNTAVAWYQQKPDQSPKLLIYWASTRHTGVPARFTGSGSGTDYTLTISSLQAEDVAVYFCQQHHVSPWTFGGGTKVEIK
B3 was tested, and the “IC50 (read off the curve), OD (450nM)” value [2] was about 0.5 µg/mL and the “IC50 (read off the curve), % Inhibition” value [1] was about 2 µg/mL.

B4: H5L1-Fab (Fab, V domains shown)
VH: QVQLKQSGAEVKKPGASVKVSCKASGYTFTDEYMNWVRQAPGKSLEWMGYINPNNGGADYNQKFQGRVTMTVDQSISTAYMELSRLRSDDTAVYFCARLGYSNPYFDFWGQGTLVTVSS
VL: DIVLTQSPDSLAVSLGERATINCKASQDVNTAVAWYQQKPDQSPKLLIYWASTRHTGVPARFTGSGSGTDYTLTISSLQAEDVAVYFCQQHHVSPWTFGGGTKVEIK
B4 was tested, and the “IC50 (read off the curve), % Inhibition” value [3] was about 2 µg/mL.

B5: H5L2-IgG (antibody, V domains shown)
VH: QVQLKQSGAEVKKPGASVKVSCKASGYTFTDEYMNWVRQAPGKSLEWMGYINPNNGGADYNQKFQGRVTMTVDQSISTAYMELSRLRSDDTAVYFCARLGYSNPYFDFWGQGTLVTVSS
VL: DIVLTQSPATLSLSPGERATLSCRASQDVNTAVAWYQQKPDQSPKLLIYWASTRHTGVPARFTGSGSGTDYTLTISSLQPEDFAVYFCQQHHVSPWTFGGGTKVEIK
For B5, the “IC50 (read off the curve), OD (450nM)” value [2] was about 0.7 µg/mL and the “IC50 (read off the curve), % Inhibition” value [1] was about 3 µg/mL.

B6: H1L2-Fab (Fab, V domains shown)
VH: QVQLVQSGAEVKKPGASVKVSCKASGYTFTDEYMNWVRQAPGQSLEWMGYINPNNGGADYNQKFQGRVTMTVDQSISTAYMELSRLRSDDTAVYFCARLGYSNPYFDFWGQGTLVTVSS
VL: DIVLTQSPATLSLSPGERATLSCRASQDVNTAVAWYQQKPDQSPKLLIYWASTRHTGVPARFTGSGSGTDYTLTISSLQPEDFAVYFCQQHHVSPWTFGGGTKVEIK
With B6 the “IC50 (read off the curve), % Inhibition” value [3] was about 2 µg/mL and the “IC50 (read off the curve), OD (450nM)” value [4] was about 0.4 µg/mL.

B7: H2L1-Fab (Fab, V domains shown)
VH: EVQLVQSGAEVKKPGASVKVSCKASGYTFTDEYMNWVRQAPGKSLEWVGYINPNNGGADYNQKFQGRVTITVDQSASTAYMELSSLRSEDTAVYFCARLGYSNPYFDFWGQGTLVTVSS
VL: DIVLTQSPDSLAVSLGERATINCKASQDVNTAVAWYQQKPDQSPKLLIYWASTRHTGVPARFTGSGSGTDYTLTISSLQAEDVAVYFCQQHHVSPWTFGGGTKVEIK
B7 was tested, and the “IC50 (read off the curve), % Inhibition” value [3] was about 2 µg/mL and the “IC50 (read off the curve), OD (450nM)” value [4] was about 0.5 µg/mL.

B8: H3L1-Fab (Fab, V domains shown)
VH: QVQLVQSGAEVKKPGASVKVSCKASGYTFTDEYMNWVRQAPGQSLEWMGYINPNNGGADYNPSLKSRVTISVDQSISTAYMELSRLRSDDTAVYFCARLGYSNPYFDFWGQGTLVTVSS
VL: DIVLTQSPDSLAVSLGERATINCKASQDVNTAVAWYQQKPDQSPKLLIYWASTRHTGVPARFTGSGSGTDYTLTISSLQAEDVAVYFCQQHHVSPWTFGGGTKVEIK
B8 was tested, and the “IC50 (read off the curve), OD (450nM)” value [4] was about 0.5 µg/mL.

B9: H1L2-IgG (antibody, V domains shown)
VH: QVQLVQSGAEVKKPGASVKVSCKASGYTFTDEYMNWVRQAPGQSLEWMGYINPNNGGADYNQKFQGRVTMTVDQSISTAYMELSRLRSDDTAVYFCARLGYSNPYFDFWGQGTLVTVSS
VL: DIVLTQSPATLSLSPGERATLSCRASQDVNTAVAWYQQKPDQSPKLLIYWASTRHTGVPARFTGSGSGTDYTLTISSLQPEDFAVYFCQQHHVSPWTFGGGTKVEIK
In the case of B9, the “IC50 (read off the curve), % Inhibition” value [1] is reported as about 3 µg/mL.

B10: H3L1-IgG (antibody, V domains shown)
VH: QVQLVQSGAEVKKPGASVKVSCKASGYTFTDEYMNWVRQAPGQSLEWMGYINPNNGGADYNPSLKSRVTISVDQSISTAYMELSRLRSDDTAVYFCARLGYSNPYFDFWGQGTLVTVSS
VL: DIVLTQSPDSLAVSLGERATINCKASQDVNTAVAWYQQKPDQSPKLLIYWASTRHTGVPARFTGSGSGTDYTLTISSLQAEDVAVYFCQQHHVSPWTFGGGTKVEIK
For B10, the “IC50 (read off the curve), OD (450nM)” value [2] was about 0.7 µg/mL.

B11: H2L2-Fab (Fab, V domains shown)
VH: EVQLVQSGAEVKKPGASVKVSCKASGYTFTDEYMNWVRQAPGKSLEWVGYINPNNGGADYNQKFQGRVTITVDQSASTAYMELSSLRSEDTAVYFCARLGYSNPYFDFWGQGTLVTVSS
VL: DIVLTQSPATLSLSPGERATLSCRASQDVNTAVAWYQQKPDQSPKLLIYWASTRHTGVPARFTGSGSGTDYTLTISSLQPEDFAVYFCQQHHVSPWTFGGGTKVEIK
With B11 the “IC50 (read off the curve), OD (450nM)” value [4] was about 0.5 µg/mL.

B12: H1L3-Fab (Fab, V domains shown)
VH: QVQLVQSGAEVKKPGASVKVSCKASGYTFTDEYMNWVRQAPGQSLEWMGYINPNNGGADYNQKFQGRVTMTVDQSISTAYMELSRLRSDDTAVYFCARLGYSNPYFDFWGQGTLVTVSS
VL: DIVLTQSPSFLSASVGDRVTITCQASQDVNTAVAWYLQKPGKSPKLLIYWASTRHTGVPARFTGSGSGTDYTLTISSLQPEDFAVYFCQQHHVSPWTFGGGTKVEIK
B12 was tested, and the “IC50 (read off the curve), % Inhibition” value [3] was about 2 µg/mL.

B13: H5L2-Fab (Fab, V domains shown)
VH: QVQLKQSGAEVKKPGASVKVSCKASGYTFTDEYMNWVRQAPGKSLEWMGYINPNNGGADYNQKFQGRVTMTVDQSISTAYMELSRLRSDDTAVYFCARLGYSNPYFDFWGQGTLVTVSS
VL: DIVLTQSPATLSLSPGERATLSCRASQDVNTAVAWYQQKPDQSPKLLIYWASTRHTGVPARFTGSGSGTDYTLTISSLQPEDFAVYFCQQHHVSPWTFGGGTKVEIK
In the case of B13, the “IC50 (read off the curve), % Inhibition” value [3] is reported as about 2 µg/mL and the “IC50 (read off the curve), OD (450nM)” value [4] is reported as about 0.4 µg/mL.

B14: H2L2-IgG (antibody, V domains shown)
VH: EVQLVQSGAEVKKPGASVKVSCKASGYTFTDEYMNWVRQAPGKSLEWVGYINPNNGGADYNQKFQGRVTITVDQSASTAYMELSSLRSEDTAVYFCARLGYSNPYFDFWGQGTLVTVSS
VL: DIVLTQSPATLSLSPGERATLSCRASQDVNTAVAWYQQKPDQSPKLLIYWASTRHTGVPARFTGSGSGTDYTLTISSLQPEDFAVYFCQQHHVSPWTFGGGTKVEIK
B14 was tested, and the “IC50 (read off the curve), OD (450nM)” value [2] was about 0.7 µg/mL.

B15: H3L2-IgG (antibody, V domains shown)
VH: QVQLVQSGAEVKKPGASVKVSCKASGYTFTDEYMNWVRQAPGQSLEWMGYINPNNGGADYNPSLKSRVTISVDQSISTAYMELSRLRSDDTAVYFCARLGYSNPYFDFWGQGTLVTVSS
VL: DIVLTQSPATLSLSPGERATLSCRASQDVNTAVAWYQQKPDQSPKLLIYWASTRHTGVPARFTGSGSGTDYTLTISSLQPEDFAVYFCQQHHVSPWTFGGGTKVEIK
For B15, the “IC50 (read off the curve), OD (450nM)” value [2] was about 0.8 µg/mL.

B16: H1L1-Fab (Fab, V domains shown)
VH: QVQLVQSGAEVKKPGASVKVSCKASGYTFTDEYMNWVRQAPGQSLEWMGYINPNNGGADYNQKFQGRVTMTVDQSISTAYMELSRLRSDDTAVYFCARLGYSNPYFDFWGQGTLVTVSS
VL: DIVLTQSPDSLAVSLGERATINCKASQDVNTAVAWYQQKPDQSPKLLIYWASTRHTGVPARFTGSGSGTDYTLTISSLQAEDVAVYFCQQHHVSPWTFGGGTKVEIK
With B16 the “IC50 (read off the curve), % Inhibition” value [3] was about 2 µg/mL and the “IC50 (read off the curve), OD (450nM)” value [4] was about 0.3 µg/mL.

B17: H3L2-Fab (Fab, V domains shown)
VH: QVQLVQSGAEVKKPGASVKVSCKASGYTFTDEYMNWVRQAPGQSLEWMGYINPNNGGADYNPSLKSRVTISVDQSISTAYMELSRLRSDDTAVYFCARLGYSNPYFDFWGQGTLVTVSS
VL: DIVLTQSPATLSLSPGERATLSCRASQDVNTAVAWYQQKPDQSPKLLIYWASTRHTGVPARFTGSGSGTDYTLTISSLQPEDFAVYFCQQHHVSPWTFGGGTKVEIK
For B17, the “IC50 (read off the curve), OD (450nM)” value [4] was about 0.5 µg/mL.

B18: H1L1-IgG (antibody, V domains shown)
VH: QVQLVQSGAEVKKPGASVKVSCKASGYTFTDEYMNWVRQAPGQSLEWMGYINPNNGGADYNQKFQGRVTMTVDQSISTAYMELSRLRSDDTAVYFCARLGYSNPYFDFWGQGTLVTVSS
VL: DIVLTQSPDSLAVSLGERATINCKASQDVNTAVAWYQQKPDQSPKLLIYWASTRHTGVPARFTGSGSGTDYTLTISSLQAEDVAVYFCQQHHVSPWTFGGGTKVEIK
In the case of B18, the “IC50 (read off the curve), % Inhibition” value [1] is reported as about 3 µg/mL.

B19: H3L4-IgG (antibody, V domains shown)
VH: QVQLVQSGAEVKKPGASVKVSCKASGYTFTDEYMNWVRQAPGQSLEWMGYINPNNGGADYNPSLKSRVTISVDQSISTAYMELSRLRSDDTAVYFCARLGYSNPYFDFWGQGTLVTVSS
VL: DIVLTQSPATLSLSPGERATLSCRASQDVNTAVAWYQQKPGKSPKLLIYWASTRHTGVPARFTGSGSGTDYTLTISSLQPEDFAVYFCQQHHVSPWTFGGGTKVEIK
B19 was tested, and the “IC50 (read off the curve), OD (450nM)” value [5] was about 0.8 µg/mL.
